Tests used:
[1] = target: European mink ACE2 fused to mouse Fc (EmkACE2-mFc) (European mink); assay: SPR
[2] = target: American mink ACE2 fused to mouse Fc (AmkACE2-mFc) (American mink (Neovison vison)); assay: SPR

## SARS-CoV-2 WT RBD (from UniProt P0DTC2 319-541) (domain or fragment)
[1]
  Kd: 52.8 µM
[2]
  Kd: 8.92 µM

— article PMC9472616
